Laboratory results taken from paper PMC8018780 (2021).
Ends that are not written are not given here.

Tests used:
Assay in all cases: SPR
[1] = molecular target: recombinant human transferrin receptor (TfR) protein (human, UniProt P02786 101-760)
[2] = molecular target: recombinant mouse transferrin receptor (TfR) protein (mouse, UniProt Q62351 1-763)
[3] = molecular target: low-density lipoprotein receptor-related protein 1 (LRP-1), human (human)

Chain of recombinant human transferrin receptor (TfR) protein (P02786 101-760): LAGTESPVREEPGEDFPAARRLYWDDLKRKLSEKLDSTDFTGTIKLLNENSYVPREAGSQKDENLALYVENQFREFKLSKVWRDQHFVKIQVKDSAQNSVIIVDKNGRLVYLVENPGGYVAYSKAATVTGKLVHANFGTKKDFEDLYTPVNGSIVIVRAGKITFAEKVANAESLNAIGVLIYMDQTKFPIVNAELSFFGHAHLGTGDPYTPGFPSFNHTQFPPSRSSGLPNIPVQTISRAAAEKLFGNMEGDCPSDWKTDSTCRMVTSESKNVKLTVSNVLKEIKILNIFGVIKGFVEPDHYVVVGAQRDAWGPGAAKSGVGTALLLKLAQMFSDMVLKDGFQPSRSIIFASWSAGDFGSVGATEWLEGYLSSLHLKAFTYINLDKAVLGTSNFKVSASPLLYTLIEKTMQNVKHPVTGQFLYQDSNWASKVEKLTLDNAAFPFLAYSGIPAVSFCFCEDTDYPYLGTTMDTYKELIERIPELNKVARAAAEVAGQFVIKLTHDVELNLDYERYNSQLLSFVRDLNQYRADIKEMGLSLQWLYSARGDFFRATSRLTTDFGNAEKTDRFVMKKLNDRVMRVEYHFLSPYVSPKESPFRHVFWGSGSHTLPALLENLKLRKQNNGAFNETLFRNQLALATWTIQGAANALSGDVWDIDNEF
Chain of recombinant mouse transferrin receptor (TfR) protein (Q62351 89-763): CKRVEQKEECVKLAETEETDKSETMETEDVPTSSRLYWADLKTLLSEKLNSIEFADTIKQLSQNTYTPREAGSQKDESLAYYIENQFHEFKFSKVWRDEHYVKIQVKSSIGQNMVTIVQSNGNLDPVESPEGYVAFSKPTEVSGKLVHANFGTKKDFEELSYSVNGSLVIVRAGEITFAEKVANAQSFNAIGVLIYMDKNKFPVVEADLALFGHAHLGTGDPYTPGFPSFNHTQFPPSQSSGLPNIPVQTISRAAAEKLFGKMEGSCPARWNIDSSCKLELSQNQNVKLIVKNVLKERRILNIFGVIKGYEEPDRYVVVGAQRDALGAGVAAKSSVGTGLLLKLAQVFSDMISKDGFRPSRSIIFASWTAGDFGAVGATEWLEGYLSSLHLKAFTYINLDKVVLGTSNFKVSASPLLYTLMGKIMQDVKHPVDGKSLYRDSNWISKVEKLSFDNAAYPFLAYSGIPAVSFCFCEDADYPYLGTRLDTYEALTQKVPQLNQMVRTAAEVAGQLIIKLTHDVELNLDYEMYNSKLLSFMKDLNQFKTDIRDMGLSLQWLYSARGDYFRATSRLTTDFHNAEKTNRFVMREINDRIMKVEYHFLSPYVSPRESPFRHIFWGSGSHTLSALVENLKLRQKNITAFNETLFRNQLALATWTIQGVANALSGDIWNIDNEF

Kd [1] [nM] | Kd [2] [nM] | Kd [3] [nM] | Binder
507 | 1300 | 0.57 | FRCLVENRGDVPFVTRIR-NH2 [MTfp (peptide 1), peptide derived from melanotransferrin]
171000 |  | 100 | GYRPVHNIRGHWAPGK-NH2 [GYR (peptide 2)]
